Biological target: human ACE-2, Fc-tagged (human) (UniProt Q9BYF1)
Assay: BLI

“SARS-CoV-2 P.1 RBD (K417T_E484K_N501Y) (domain or fragment)” gave a Kd of 5.64 nM.
“SARS-CoV-2 RBD K417N (domain or fragment)” showed a Kd of 77 nM and a koff of 0.0162 s⁻¹.
For “SARS-CoV-2 RBD K417T (domain or fragment)”, the Kd was 56.7 nM and the koff was 0.0129 s⁻¹.
“SARS-CoV-2 RBD E484K (domain or fragment)” was tested, and the Kd was 15.6 nM, the koff was 0.00677 s⁻¹ and the kon was 433000 M⁻¹ s⁻¹.
Work on “SARS-CoV-2 receptor-binding domain (RBD) wild type (Wuhan strain) (domain or fragment)” yielded a Kd of 23.9 nM, a koff of 0.00755 s⁻¹ and a kon of 315000 M⁻¹ s⁻¹.
For “SARS-CoV-2 B.1.351 RBD (K417N_E484K_N501Y) (domain or fragment)”, the Kd was 7.81 nM.

— article PMC8529273
